Reference: US20090010874A1 (published 2009)
Positions count from the first letter of the chain named. Names and notes keep the numbering of the source.

T1: human IL-4 receptor alpha chain on cells (TF-1 cells, primary human T-cell blasts and B cells) (human, UniProt P24394 26-825)
T1 sequence (looked up): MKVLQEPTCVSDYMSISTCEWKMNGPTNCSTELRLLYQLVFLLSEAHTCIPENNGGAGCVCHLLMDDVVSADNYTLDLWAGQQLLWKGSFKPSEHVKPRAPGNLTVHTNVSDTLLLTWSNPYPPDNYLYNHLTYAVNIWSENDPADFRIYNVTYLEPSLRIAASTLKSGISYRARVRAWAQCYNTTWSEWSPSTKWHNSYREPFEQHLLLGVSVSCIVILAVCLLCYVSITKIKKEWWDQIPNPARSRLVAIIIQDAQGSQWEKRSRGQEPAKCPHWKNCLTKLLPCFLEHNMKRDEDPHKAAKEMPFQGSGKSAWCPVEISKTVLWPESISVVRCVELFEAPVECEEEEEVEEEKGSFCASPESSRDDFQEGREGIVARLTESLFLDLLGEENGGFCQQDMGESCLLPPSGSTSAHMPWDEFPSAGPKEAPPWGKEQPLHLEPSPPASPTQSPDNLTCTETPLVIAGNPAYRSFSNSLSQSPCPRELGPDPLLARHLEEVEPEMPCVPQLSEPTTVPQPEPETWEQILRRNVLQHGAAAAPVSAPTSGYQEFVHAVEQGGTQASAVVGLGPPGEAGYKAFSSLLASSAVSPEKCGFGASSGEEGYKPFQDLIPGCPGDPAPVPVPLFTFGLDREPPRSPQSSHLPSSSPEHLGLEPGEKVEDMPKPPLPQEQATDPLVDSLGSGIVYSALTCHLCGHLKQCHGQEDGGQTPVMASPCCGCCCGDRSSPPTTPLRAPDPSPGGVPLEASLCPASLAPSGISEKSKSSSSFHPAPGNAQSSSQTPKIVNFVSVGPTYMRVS

T2: IL-4 receptor (immobilized on BIAcore CM5 chip) (human, UniProt P24394 26-232, limits assumed)
T2 construct: also called IL-4Rα; IL-4 receptor alpha chain
T2 sequence (looked up): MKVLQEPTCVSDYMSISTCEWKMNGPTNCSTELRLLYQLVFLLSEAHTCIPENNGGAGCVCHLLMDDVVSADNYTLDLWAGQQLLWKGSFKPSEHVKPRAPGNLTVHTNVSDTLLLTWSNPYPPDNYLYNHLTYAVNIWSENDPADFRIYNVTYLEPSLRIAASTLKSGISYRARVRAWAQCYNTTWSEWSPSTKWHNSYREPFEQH

B1: IL-4RA (IL-4 double mutein R121D/Y124D, unPEGylated) (ligand)
chain: MHKCDITLQEIIKTLNSLTEQKTLCTELTVTDIFAASKNTTEKETFCRAATVLRQFYSHHEKDTRCLGATAQQFHRHKQLIRFLKRLDRNLWGLAGLNSCPVKEANQSTLENFLERLKTIMDEKDSKCSS
notes: also called BAY 16-9996; IL-4DM
B2: IL4-RE-T13D (T13D/R121D/Y124D), unPEGylated (ligand)
chain: B1 chain with T14D
B3: IL-4TM-N38C (R121D/Y124D/N38C) PEGylated with 40 kDa branched maleimide-PEG (ligand)
chain: B1 chain with N39C
modifications: 40 kDa branched maleimide-PEG on Cys 38 (numbered according to wild type IL-4)
B4: IL4-RE-Q106C, PEGylated with linear 22 kD mPEG-maleimide (ligand)
chain: B1 chain with Q107C
modifications: linear 22 kD methoxy-polyethylene glycol-maleimide on Cys 106 (numbered according to wild type IL-4)
notes: also called PEG-IL4RE
B5: IL-4TM-A104C (R121D/Y124D/A104C) PEGylated with 30 kDa linear maleimide-PEG (ligand)
chain: B1 chain with A105C
modifications: 30 kDa linear maleimide-PEG on Cys 104 (numbered according to wild type IL-4)
B6: IL-4TM-A104C (R121D/Y124D/A104C) PEGylated with 40 kDa branched maleimide-PEG (ligand)
chain: B1 chain with A105C
modifications: 40 kDa branched maleimide-PEG on Cys 104 (numbered according to wild type IL-4)
B7: PEGylated T13D-N38C with 40 kDa branched PEG (IL4-RE-T13D-N38C) (ligand)
chain: B1 chain with T14D, N39C
modifications: 40 kDa branched maleimide-PEG on Cys 38 (numbered according to wild type IL-4)
B8: IL4-RE-N105C, PEGylated with linear 22 kD mPEG-maleimide (ligand)
chain: B1 chain with N106C
modifications: linear 22 kD methoxy-polyethylene glycol-maleimide on Cys 105 (numbered according to wild type IL-4)
notes: also called PEG-IL4RE
B9: IL4-RE-K37C, PEGylated with linear 22 kD mPEG-maleimide (ligand)
chain: B1 chain with K38C
modifications: linear 22 kD methoxy-polyethylene glycol-maleimide on Cys 37 (numbered according to wild type IL-4)
notes: also called PEG-IL4RE
B10: IL4-RE-A104C, PEGylated with linear 22 kD mPEG-maleimide (ligand)
chain: B1 chain with A105C
modifications: linear 22 kD methoxy-polyethylene glycol-maleimide on Cys 104 (numbered according to wild type IL-4)
notes: also called PEG-IL4RE
B11: IL4-RE-S36C, PEGylated with linear 22 kD mPEG-maleimide (ligand)
chain: B1 chain with S37C
modifications: linear 22 kD methoxy-polyethylene glycol-maleimide on Cys 36 (numbered according to wild type IL-4)
notes: also called PEG-IL4RE
B12: IL4-RE-N38C, PEGylated with linear 22 kD mPEG-maleimide (ligand)
chain: B1 chain with N39C
modifications: linear 22 kD methoxy-polyethylene glycol-maleimide on Cys 38 (numbered according to wild type IL-4)
notes: also called PEG-IL4RE
B13: IL4-RE-T28C, PEGylated with linear 22 kD mPEG-maleimide (ligand)
chain: B1 chain with T29C
modifications: linear 22 kD methoxy-polyethylene glycol-maleimide on Cys 28 (numbered according to wild type IL-4)
notes: also called PEG-IL4RE

Legend:
[1] = target: T1, human IL-4 receptor alpha chain on …; assay: cell-based or functional assay
[2] = target: T2, IL-4 receptor (immobilized on BIAcore …); assay: BIAcore SPR, IL-4 receptor amine-coupled to CM5 chip, mutein injected, direct binding kinetics
Procedure: IL-4 receptor was immobilized on a BIAcore CM5 research grade sensor chip through amine coupling. The sensor surface was activated with an EDC/NHS pulse. IL-4 receptor was dissolved in 10 mM acetate buffer (pH 5.0) and injected into flowcell 2 followed by a pulse of 1.0M ethanolamine-HCL to deactivate the surface. The immobilization level for the receptor was ˜300 RU. Flowcell 1 was also activated without a ligand to function as a blank. The Biacore Wizard was used to perform kinetics analysis. Candidate IL4RE antagonists were diluted in HBS-EP (running buffer) and injected at 30 ul/minute flow rate for 3 minutes and a dissociation time of 15 minutes. Regeneration of the chip was performed by two 30 second injections of 10 mM Glycine pH2.5 (flow 100 ul/min) to baseline prior to next injection in the concentration series. Dissociation constant (KD) values were calculated for each candidate based on direct binding kinetics (Table 5).

[3] = target: T1, human IL-4 receptor alpha chain on …; assay: cell-based or functional assay; remark: listed apart in the source
[4] = target: T1, human IL-4 receptor alpha chain on …; assay: cell-based or functional assay; remark: listed apart in the source
[5] = target: T1, human IL-4 receptor alpha chain on …; assay: cell-based or functional assay; remark: listed apart in the source
[6] = target: T1, human IL-4 receptor alpha chain on …; assay: cell-based or functional assay; remark: listed apart in the source

Binder | B-cell IC50, nM (proliferation to IL-4) [1] [nM] | T-cell blast IC50, nM (proliferation to IL-4) [1] [nM] | Kd [2] [nM] | Fold increase in IC50 (relative to IL-4DM), primary B cells [3] [fold] | IC50 (nM), primary B cell proliferation to anti-CD40 and IL-4 [3] [nM] | TF-1/IL-4 IC50 [4] [nM] | TF-1/IL-13 IC50 [4] [nM] | Fold increase in IC50 (relative to IL-4DM), primary T cell blasts [5] [fold] | IC50 (nM), primary T cell blast proliferation to IL-4 [5] [nM] | loss of activity in the TF-1 activity assay against PEGylated 38C [6] [fold]
B1 | 0.86 | 3.22 | 0.11 | 1 | 1.71 | 0.56 | 1.17 | 1 | 1.07 | –
B2 | – | – | – | 0.3 | 0.5 | – | – | 0.67 | 0.714 | –
B3 | – | – | – | 4 | 6.85 | – | – | 2.3 | 2.43 | –
B4 | – | – | 0.52 | – | – | 2.44 | 1.95 | – | – | –
B5 | – | – | – | 7.6 | 13 | – | – | 4.6 | 4.93 | –
B6 | – | – | – | 11.3 | 19.4 | – | – | 7.4 | 8 | ~2
B7 | – | – | – | 1.4 | 2.43 | – | – | 3.1 | 3.28 | –
B8 | – | – | 0.59 | – | – | 2.26 | 2.11 | – | – | –
B9 | 3.73 | 13.9 | 0.74 | – | – | 0.82 | 1.22 | – | – | –
B10 | 3.29 | 4.67 | 0.56 | – | – | 0.55 | 1.34 | – | – | –
B11 | – | – | 1.15 | – | – | 1.2 | 1.21 | – | – | –
B12 | 3.33 | 9.94 | 0.77 | – | – | 0.7 | 1.24 | – | – | –
B13 | – | – | 0.89 | – | – | 2.35 | 2.87 | – | – | –
